Values quoted from earlier work in publication PMC4122144.

Key:
Conditions in all cases: Not stated. Presumably ground-state bR, since the values are compared with calculations on the 1QHJ ground-state structure.
[1] = molecular target: Asp96 (UniProt position 109, PLLLLDLALLV)
[2] = molecular target: Arg82 (UniProt position 95, PIYWARYADWL)
[3] = molecular target: Asp115 (UniProt position 128, ALVGADGIMIG)
[4] = molecular target: Asp85 (UniProt position 98, WARYADWLFTT)
[5] = molecular target: Asp212 (UniProt position 225, LFMVLDVSAKV)

Substance: Bacteriorhodopsin (Halobacterium salinarum (not stated in the article; inferred))
- pKa [1]: >12.0
- pKa [2]: >13.8
- pKa [3]: > 9.5
- pKa [4]: 2.6
- pKa [5]: < 2.5
